# Experimental data from FireProtDB (doi:10.1002/pro.3128).
# B1: Pleckstrin homology domain-containing family F member 2 wild type, Q9H8W4 (protein)
# chain: MVDRLANSEANTRRISIVENCFGAAGQPLTIPGRVLIGEGVLTKLCRKKPKARQFFLFNDILVYGNIVIQKKKYNKQHIIPLENVTIDSIKDEGDLRNGWLIKTPTKSFAVYAATATEKSEWMNHINKCVTDLLSKSGKTPSNEHAAVWVPDSEATVCMRCQKAKFTPVNRRHHCRKCGFVVCGPCSEKRFLLPSQSSKPVRICDFCYDLLSAGDMATCQPARSDSYSQSLKSPLNDMSDDDDDDDSSD
# Details: Homo sapiens, pH 7.3, 25 °C, Sodium citrate 5mM, KF 50mM, transition: 2, reversible: no, whole UniProt chain shown
protein,measurement,setting,value
B1,denaturant m value,"GdnHCl, CD",2.48 kcal/mol/M
same,denaturant midpoint (higher = more stable),"GdnHCl, CD",1.51 M
same,unfolding free energy,"GdnHCl, CD",3.75 kcal/mol
same,denaturant m value,"GdnHCl, Fluorescence",2.93 kcal/mol/M
same,denaturant midpoint (higher = more stable),"GdnHCl, Fluorescence",1.3 M
same,unfolding free energy,"GdnHCl, Fluorescence",3.8 kcal/mol
same,denaturant m value,"Urea, CD",1.16 kcal/mol/M
same,denaturant midpoint (higher = more stable),"Urea, CD",3.45 M
same,unfolding free energy,"Urea, CD",4 kcal/mol
same,denaturant m value,"Urea, Fluorescence",1.19 kcal/mol/M
same,denaturant midpoint (higher = more stable),"Urea, Fluorescence",3.42 M
same,unfolding free energy,"Urea, Fluorescence",4.07 kcal/mol
